Source: patent publication US20230078601A1 (CLEVELAND CLINIC FOUNDATION, published 2023)

Legend:
[1] = biological target: human Anti-Mullerian Hormone Receptor II (AMHR2), full length (human) (UniProt Q16671); test: flow cytometry competition on AMHR2-OVCAR8 cells: 4D12G1 mAb at 1 µg/ml with recombinant ovalbumin at 1 µg/ml; 91 % without competitor in FIG. 2E
[2] = biological target: human Anti-Mullerian Hormone Receptor II (AMHR2), full length (human) (UniProt Q16671); test: flow cytometry competition on AMHR2-OVCAR8 cells: 4D12G1 mAb at 1 µg/ml with recombinant ovalbumin at 10 µg/ml; 91 % without competitor in FIG. 2E
[3] = biological target: human Anti-Mullerian Hormone Receptor II (AMHR2), full length (human) (UniProt Q16671); test: flow cytometry competition on AMHR2-OVCAR8 cells: 4D12G1 mAb at 1 µg/ml with recombinant ovalbumin at 100 µg/ml; 91 % without competitor in FIG. 2E
[4] = biological target: human Anti-Mullerian Hormone Receptor II (AMHR2), full length (human) (UniProt Q16671); test: flow cytometry on primary HGSOC-1 cells
[5] = biological target: human Anti-Mullerian Hormone Receptor II (AMHR2), full length (human) (UniProt Q16671); test: flow cytometry on primary HGSOC-2 cells
[6] = biological target: human Anti-Mullerian Hormone Receptor II (AMHR2), full length (human) (UniProt Q16671); test: flow cytometry on AMHR2-OVCAR8 cells, mAb at 1 µg/ml

Sequence of human Anti-Mullerian Hormone Receptor II (AMHR2), full length (human) (Q16671 18-573 limits assumed): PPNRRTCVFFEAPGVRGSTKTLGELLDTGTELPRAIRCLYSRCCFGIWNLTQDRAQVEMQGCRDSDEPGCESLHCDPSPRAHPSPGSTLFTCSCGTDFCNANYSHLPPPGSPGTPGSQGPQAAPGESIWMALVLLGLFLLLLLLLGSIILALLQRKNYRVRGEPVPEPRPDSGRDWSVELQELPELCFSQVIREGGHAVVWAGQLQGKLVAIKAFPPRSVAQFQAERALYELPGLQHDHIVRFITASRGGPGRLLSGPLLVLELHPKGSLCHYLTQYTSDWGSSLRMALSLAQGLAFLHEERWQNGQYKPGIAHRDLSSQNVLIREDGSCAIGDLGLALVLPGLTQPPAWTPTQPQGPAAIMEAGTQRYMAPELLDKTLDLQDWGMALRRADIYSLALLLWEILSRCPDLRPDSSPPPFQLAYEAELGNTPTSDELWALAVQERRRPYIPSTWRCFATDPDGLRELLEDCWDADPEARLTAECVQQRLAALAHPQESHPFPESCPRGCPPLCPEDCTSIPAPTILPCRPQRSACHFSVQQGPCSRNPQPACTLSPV

Row | % of cells in the 4D12G1-positive gate with ovalbumin at 1 µg/ml [1] [%] | % of cells in the 4D12G1-positive gate with ovalbumin at 10 µg/ml [2] [%] | % of cells in the 4D12G1-positive gate with ovalbumin at 100 µg/ml [3] [%] | percent of cells bound [4] [%] | percent of cells bound [5] [%] | % of cells in the positive gate [6] [%] | Substance
1 | 88 | 86 | 88 | – | – | – | recombinant ovalbumin (from UniProt P01012 2-386)
2 | – | – | – | 1.5 | 1.1 | 1.1 | isotype control mAb (antibody)
